First the molecules themselves.
B1: C8orf76 (parent)
chain: KLAEAYLNLGPALSAALASSQKQH
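Also: lentivirally expressed fusions sorted by FACS into six bins by GFP to DsRed ratio, PSI derived from sequencing read proportions per bin multiplied by bin number.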

The data set covers variants of B1. In words: protein stability index of a GFP-peptide fusion (GPS, HEK-293T) (PSI 1-6); higher = more stable. The settings on record: c terminus: a fixed tail appended.
Take KLAEAYLNLGPALSAALASSQYQH [K22Y]: the protein stability index was determined as 3.64.
KLAEAYLNLGPALSAALASSQLQH [K22L]: the protein stability index stood at 3.34.
To KLAEAYLNLGPALSAALASSQRQH [K22R] belongs 4.21; to KLAEAYLNLGPALSAALASSQGQH [K22G], 3.43; to KLAEAYLNLGPALSAALASSQDQH [K22D], 1.69.
Take KLAEAYLNLGPALSAALASSQIQH [K22I]: the protein stability index came out at 3.1.
To KLAEAYLNLGPAMSAALASSQKQH [L13M] belongs 1.8; to KLAEAYLNLGPASSAALASSQKQH [L13S], 2.54; to KLAEAYLNLGPAKSAALASSQKQH [L13K], 2.36.
In the case of KLAEAYLNLGPAISAALASSQKQH [L13I], the protein stability index came out at 3.23.
To KLAEAYLNLGPAVSAALASSQKQH [L13V] belongs 1.48; to KLAEAYLNLGPAFSAALASSQKQH [L13F], 2.03.
To KLAEAYLNLGPANSAALASSQKQH [L13N] belongs 2.31.
To KLAEAYLNLGPARSAALASSQKQH [L13R] belongs 2.24; to KLAEAYLNLGPAQSAALASSQKQH [L13Q], 2.76; to KLAEAYLNLGPAPSAALASSQKQH [L13P], 2.82.
Regarding KLAEAYLNLGPAHSAALASSQKQH [L13H], the protein stability index was 2.23.
To KLAEAYLNLGPADSAALASSQKQH [L13D] belongs 3.15; to KLAEAYLNLGPATSAALASSQKQH [L13T], 2.65.
Turning to KLAEAYLNLGPAESAALASSQKQH [L13E], the protein stability index is 3.29.
In the case of KLAEAYLNLGPAYSAALASSQKQH [L13Y], the protein stability index came to 2.14.
KLAEAYLNLGPAGSAALASSQKQH [L13G]: the protein stability index stood at 2.65.
To KLAEAYLNLGPAWSAALASSQKQH [L13W] belongs 2.06.
To KLAEAYLNLGPALSAALAISQKQH [S19I] belongs 3.22.
To KLAEAYLNLGPALSAALAWSQKQH [S19W] belongs 2.57; to KLAEAYLNLGPALSAALAHSQKQH [S19H], 3.15.
For KLAEAYLNLGPALSAALALSQKQH [S19L], the protein stability index turned out to be 2.35.
Take KLAEAYLNLGPALSAALAGSQKQH [S19G]: the protein stability index was 3.14.
KLAEAYLNLGPALSAALAYSQKQH [S19Y]: the protein stability index stood at 2.84.
As to KLAEAYLNLGPALSAALAASQKQH [S19A], the protein stability index turned out to be 4.1.
To KLAEAYLNLGPALSAALAPSQKQH [S19P] belongs 2.08.
With KLAEAYLNLGPALSAALAESQKQH [S19E], the protein stability index turned out to be 2.95.
As to KLAEAYLNLGPALSAALAVSQKQH [S19V], the protein stability index is 2.64.
Regarding KLAEAYLNLGPALSAALADSQKQH [S19D], the protein stability index came to 1.89.
To KLAEAYLNLGPALSAALAFSQKQH [S19F] belongs 2.5; to KLAEAYLNLGPALSAALARSQKQH [S19R], 2.74; to KLAEAYLNLGPALSAALATSQKQH [S19T], 3.75.
For the variant KLAEAYLNLGPALSAALANSQKQH [S19N], the protein stability index was 3.
As for KLAEAYLNLGPALSAALAMSQKQH [S19M], the protein stability index came out at 3.29.
To KLAEAYLNLGPALSAALAQSQKQH [S19Q] belongs 2.43; to KLAEAYLNLGPALSAALAKSQKQH [S19K], 2.51; to KLAEAYLNLGPALSAALACSQKQH [S19C], 2.07.
To KLAEAYLNLGPALSFALASSQKQH [A15F] belongs 2.78; to KLAEAYLNLGPALSDALASSQKQH [A15D], 2.32; to KLAEAYLNLGPALSPALASSQKQH [A15P], 2.36.
To KLAEAYLNLGPALSLALASSQKQH [A15L] belongs 3.15.
KLAEAYLNLGPALSYALASSQKQH [A15Y]: the protein stability index was determined as 2.09.
To KLAEAYLNLGPALSGALASSQKQH [A15G] belongs 2.03; to KLAEAYLNLGPALSSALASSQKQH [A15S], 1.54; to KLAEAYLNLGPALSIALASSQKQH [A15I], 3.79.
To KLAEAYLNLGPALSHALASSQKQH [A15H] belongs 2.63; to KLAEAYLNLGPALSWALASSQKQH [A15W], 2.71; to KLAEAYLNLGPALSCALASSQKQH [A15C], 2.3.
To KLAEAYLNLGPALSRALASSQKQH [A15R] belongs 2.34.
As for KLAEAYLNLGPALSVALASSQKQH [A15V], the protein stability index was found to be 2.31.
As for KLAEAYLNLGPALSNALASSQKQH [A15N], the protein stability index was found to be 1.81.
To KLAEAYLNLGPALSTALASSQKQH [A15T] belongs 2.15; to KLAEAYLNLGPALSMALASSQKQH [A15M], 2.94; to KLAEAYLNLGPALSKALASSQKQH [A15K], 2.27.
To KLAEAYLNLGPALSQALASSQKQH [A15Q] belongs 2.98; to KLAEAYLNLGPALSEALASSQKQH [A15E], 2.26; to KLAEAYLNLGPALSAASASSQKQH [L17S], 2.03.
To KLAEAYLNLGPALSAAFASSQKQH [L17F] belongs 2.21; to KLAEAYLNLGPALSAAMASSQKQH [L17M], 2.69.
With KLAEAYLNLGPALSAANASSQKQH [L17N], the protein stability index came out at 2.56.
For KLAEAYLNLGPALSAAPASSQKQH [L17P], the protein stability index worked out at 2.76.
As for KLAEAYLNLGPALSAACASSQKQH [L17C], the protein stability index stood at 1.6.
To KLAEAYLNLGPALSAAEASSQKQH [L17E] belongs 2.26; to KLAEAYLNLGPALSAAYASSQKQH [L17Y], 1.97.
For KLAEAYLNLGPALSAAGASSQKQH [L17G], the protein stability index turned out to be 1.95.
To KLAEAYLNLGPALSAADASSQKQH [L17D] belongs 2.94.
Turning to KLAEAYLNLGPALSAAIASSQKQH [L17I], the protein stability index was 2.16.
To KLAEAYLNLGPALSAARASSQKQH [L17R] belongs 2.45; to KLAEAYLNLGPALSAAKASSQKQH [L17K], 1.81.
To KLAEAYLNLGPALSAATASSQKQH [L17T] belongs 1.95; to KLAEAYLNLGPALSAAAASSQKQH [L17A], 1.65; to KLAEAYLNLGPALSAAQASSQKQH [L17Q], 2.17.
To KLAEAYLNLGPALSAAHASSQKQH [L17H] belongs 2.17.
As for KLAEAYLNLGPALSAAVASSQKQH [L17V], the protein stability index is 1.59.
In the case of KLAEAYLNLGPALDAALASSQKQH [S14D], the protein stability index stood at 2.06.
To KLAEAYLNLGPALGAALASSQKQH [S14G] belongs 2.12; to KLAEAYLNLGPALEAALASSQKQH [S14E], 1.23.
To KLAEAYLNLGPALRAALASSQKQH [S14R] belongs 2.06.
To KLAEAYLNLGPALAAALASSQKQH [S14A] belongs 1.47; to KLAEAYLNLGPALPAALASSQKQH [S14P], 1.81.
As for KLAEAYLNLGPALMAALASSQKQH [S14M], the protein stability index came out at 3.24.
In the case of KLAEAYLNLGPALVAALASSQKQH [S14V], the protein stability index was 4.08.
On to KLAEAYLNLGPALYAALASSQKQH [S14Y], for which the protein stability index was 2.35.
As for KLAEAYLNLGPALQAALASSQKQH [S14Q], the protein stability index worked out at 2.93.
As to KLAEAYLNLGPALFAALASSQKQH [S14F], the protein stability index amounted to 4.03.
To KLAEAYLNLGPALNAALASSQKQH [S14N] belongs 2.86; to KLAEAYLNLGPALKAALASSQKQH [S14K], 1.3.
To KLAEAYLNLGPALTAALASSQKQH [S14T] belongs 3.75; to KLAEAYLNLGPALHAALASSQKQH [S14H], 2.18.
